As a reminder, the Kd is the concentration at which binding is half-saturated. Low values mean higher affinity, high ones lower affinity.

This note sets out measurements from PMC3578875.

The target of the assay is human mu opioid receptor, N-terminally his-tagged (human) (UniProt P35372). As to the kind of experiment: SPR; Biacore-X, 25°C; OPRM captured on a Ni-NTA sensor chip (about 4000 RU), second cell as reference; running Buffer B (5 mM NaHPO4, 10% glycerol, 0.07% Fos-12, pH 7.5); EM-1 injected at 10, 30, 50, 60, 80, 100 nM, 5 µl/min, no regeneration; 1:1 interaction model. In general terms: SPR reads the build-up and loss of mass on a sensor chip optically.
UniProt P35372, sequence (P35372 whole entry): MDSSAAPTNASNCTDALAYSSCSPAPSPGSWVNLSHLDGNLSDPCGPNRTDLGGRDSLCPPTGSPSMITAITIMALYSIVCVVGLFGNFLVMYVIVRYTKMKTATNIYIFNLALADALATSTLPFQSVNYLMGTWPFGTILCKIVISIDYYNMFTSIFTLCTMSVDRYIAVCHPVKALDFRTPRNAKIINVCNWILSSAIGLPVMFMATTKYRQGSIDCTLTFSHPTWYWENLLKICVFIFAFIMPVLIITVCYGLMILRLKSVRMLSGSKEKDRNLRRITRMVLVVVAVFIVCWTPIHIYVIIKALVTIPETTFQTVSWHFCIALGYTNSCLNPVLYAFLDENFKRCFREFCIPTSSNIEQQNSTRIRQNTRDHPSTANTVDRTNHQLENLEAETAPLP

For endomorphin-1 (peptide), the Kd was 60.9 nM.
